Source: US10946092 (BEIJING MABWORKS BIOTECH, dated 2021)
Blank lines part the entries; values can stand above or below the binder they belong to.

What was measured:
[1] = target: T1, mouse LAG3 expressed on HEK293A cells (mouse, UniProt Q61790 24-521); experiment: FACS on HEK293A/mouse LAG3 cells
T1 construct: whole, on cells; also called HEK293A/mouse LAG3
T1 sequence (looked up): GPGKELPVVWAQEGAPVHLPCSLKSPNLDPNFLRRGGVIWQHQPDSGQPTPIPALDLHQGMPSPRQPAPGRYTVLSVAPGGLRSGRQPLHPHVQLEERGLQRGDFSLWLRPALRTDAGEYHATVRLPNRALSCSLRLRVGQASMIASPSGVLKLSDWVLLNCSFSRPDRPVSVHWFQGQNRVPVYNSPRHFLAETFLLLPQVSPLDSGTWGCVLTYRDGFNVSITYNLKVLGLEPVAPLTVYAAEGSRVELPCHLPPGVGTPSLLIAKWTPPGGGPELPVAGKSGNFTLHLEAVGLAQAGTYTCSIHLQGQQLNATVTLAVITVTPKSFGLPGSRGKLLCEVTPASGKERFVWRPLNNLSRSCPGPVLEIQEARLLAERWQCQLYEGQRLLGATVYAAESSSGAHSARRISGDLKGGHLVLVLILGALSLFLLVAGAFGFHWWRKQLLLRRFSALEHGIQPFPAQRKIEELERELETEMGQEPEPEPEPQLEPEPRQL
Protocol: (§1) Briefly, 10^5 HEK293A cells in 50 μl PBS buffers were seeded into each well of the 96-well plates and then added with 50 μl of serially diluted anti-LAG3 antibodies (5-fold dilution, starting from 40 μg/ml). After incubated at 4° C. for 1 hour, plates were washed 3 times with PBST. Then, an APC coupled Goat Anti-Mouse IgG (BioLegend, US, Cat #: 405308) diluted 500× was added to the plates. After incubation at 4° C. for 1 hour, the plates were washed with PBS for 3 times and then cell fluorescence was monitored using a FACS machine (BD).

[2] = target: T2, recombinant monkey LAG3(ECD)-hFc (ACRO, Cat #: LA3-05252) (monkey (rhesus), UniProt A0A5F8A874 23-450); experiment: ELISA, coated monkey LAG3(ECD)-hFc
T2 construct: Bought protein; also called rhesus LAG3(ECD)-hFc; rh LAG3(ECD)-hFc; not shown: human Fc (hFc) and any linker
T2 sequence: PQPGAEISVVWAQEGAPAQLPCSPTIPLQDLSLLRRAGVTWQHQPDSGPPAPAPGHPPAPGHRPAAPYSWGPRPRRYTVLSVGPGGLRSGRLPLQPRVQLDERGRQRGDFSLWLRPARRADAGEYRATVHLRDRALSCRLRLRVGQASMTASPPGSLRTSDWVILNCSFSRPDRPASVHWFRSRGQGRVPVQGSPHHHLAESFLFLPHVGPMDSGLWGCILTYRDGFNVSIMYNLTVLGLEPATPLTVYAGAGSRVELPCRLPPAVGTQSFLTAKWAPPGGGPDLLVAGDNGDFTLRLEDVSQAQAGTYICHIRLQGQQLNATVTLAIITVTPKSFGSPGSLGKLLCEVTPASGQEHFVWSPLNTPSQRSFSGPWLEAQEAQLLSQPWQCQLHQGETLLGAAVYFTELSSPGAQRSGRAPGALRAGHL
Protocol: Species-cross-reactivity of the 12 LAG3 mAbs to monkey or mouse LAG3 was further tested by direct ELISA. Briefly, 50 µl of 500 ng/ml monkey LAG3(ECD)-hFc (ACRO, CN, Cat #: LA3-05252) or mouse LAG3-his (Sino Biological, CN, Cat #:53069-M08H) was coated on 96-well ELISA plates followed by incubation with 100 µl of serially diluted anti-LAG3 antibodies (starting from 40 µg/ml). Goat anti-mouse IgG conjugated with HRP (Sigma, US, Cat #: A9309-1 ml) was added then.

[3] = target: T3, human LAG3 expressed on HEK293A cells (human, UniProt P18627 23-525); experiment: FACS on HEK293A/human LAG3 cells
T3 construct: whole, on cells; also called HEK293A/human LAG3
T3 sequence (looked up): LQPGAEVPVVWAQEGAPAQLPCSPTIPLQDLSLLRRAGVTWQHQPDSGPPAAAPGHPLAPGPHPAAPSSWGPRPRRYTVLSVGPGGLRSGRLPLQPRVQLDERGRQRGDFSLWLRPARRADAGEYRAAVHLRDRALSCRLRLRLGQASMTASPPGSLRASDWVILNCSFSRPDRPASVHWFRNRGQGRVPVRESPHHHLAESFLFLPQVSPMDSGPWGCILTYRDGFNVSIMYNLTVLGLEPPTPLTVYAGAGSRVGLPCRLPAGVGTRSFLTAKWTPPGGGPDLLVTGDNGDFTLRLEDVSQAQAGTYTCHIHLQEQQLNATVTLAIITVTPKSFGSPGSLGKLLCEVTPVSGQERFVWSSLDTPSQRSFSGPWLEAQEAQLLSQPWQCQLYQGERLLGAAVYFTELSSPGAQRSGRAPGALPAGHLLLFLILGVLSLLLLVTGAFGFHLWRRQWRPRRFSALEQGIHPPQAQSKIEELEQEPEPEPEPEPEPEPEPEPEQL
Protocol: as §1

EC50 [2]: 0.23 nM
EC50 [3]: 8.6 nM
B1: mouse anti-LAG3 monoclonal antibody 134G10 (antibody, V domains shown)
VH: EVQLVESGGDLVKPGGSLKLSCAASGFTFSSFGMSWVRQTPDKRLEWVGIISSGGTYTFYPDILKGRFTISRDNAKNTLYLQMSSLKSEDTAMYYCARVYSDYDGRFDYWGQGTTLTVSS
VL: DIVMTQSPSSLSVSAGEKVTMNCKSSQSLLNSGNQKNYLAWYQQKPGQPPKLLIYGASTRESGVPDRFTGSGSGTDFTLTISSVQAEDLAVYYCQNDHSYPLTFGAGTKLELK
binding result [1]: no binding (tested: starting from 40 µg/ml)

EC50 [2]: 2.3 nM
EC50 [3]: 0.36 nM
B2: mouse anti-LAG3 monoclonal antibody 101F4 (antibody, V domains shown)
VH: EVQLEQSGAELVRPGASVTLSCKASGYTFTDYEMHWVKQTPVYGLEWMGAIDPETGGIVYNQRFKGKAILTADKSSSTAYMELRSLTSEDSAVYYCTGAGWGYWGQGTTLTVSS
VL: DIVITQSPSSMYASLGERVTITCKASQDINSYLSWFQQKPGKSPKTLIYRANRLLDGVPSRFSGSGSGQDYSLTISSLEFEDMGLYYCLQYDEFPFTFGSGTKLEIK
binding result [1]: no binding (tested: starting from 40 µg/ml)
